Reference: PMC5297723

Molecular target: recombinant CMG2-Fc-Apo (rCMG2-Fc-Apo) protein (human) (UniProt P58335)
Assay: non-reducing SDS-PAGE

Substance: recombinant CMG2-Fc-Apo (rCMG2-Fc-Apo) protein (from UniProt P58335 34-318) (Fc fusion)
- stoichiometry N: 2
